From the supplement of paper PMC9170038

How the values were obtained:
MS2 coat protein [1] = experiment: apparent KD of MS2 coat protein, switch OFF state (with FMN for OFF switches, without FMN for ON switches); designed switch direction (-1 OFF switch, 1 ON switch): -1; higher = weaker reporter binding; conditions: FMN input: 0 or 200 uM; Eterna round: R93 (includes R88 designs)
How it was run: (§1)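 Designed RNA switches were transcribed on-chip from Illumina sequencing clusters. SNAP-549-labelled MS2 coat protein was titrated onto them in twofold steps from 0.7 or 1.5 nM to 3 µM in 100 mM Tris-HCl pH 7.5, 80 mM KCl, 4 mM MgCl2, either without or with constant ligand. Apparent KD reflects the per-design median of normalised cluster binding-curve fits.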

MS2 coat protein [2] = experiment: apparent KD of MS2 coat protein, switch ON state; designed switch direction (-1 OFF switch, 1 ON switch): -1; higher = weaker reporter binding; conditions: FMN input: 0 or 200 uM; Eterna round: R93 (includes R88 designs)
How it was run: as §1

MS2 coat protein [3] = experiment: apparent KD of MS2 coat protein; designed switch direction (-1 OFF switch, 1 ON switch): 1; higher = weaker reporter binding
How it was run: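 The apparent KD reported per design is the median over clusters of curve fits to normalised cluster fluorescence. The RNA switches were transcribed on Illumina chips by stalled E. coli RNA polymerase. SNAP-549-labelled MS2 coat protein was titrated from 0.7 or 1.5 nM, doubling up to 3 µM, in Tris-HCl pH 7.5 buffer containing KCl, MgCl2, BSA, DTT, tRNA and Tween-20, with no input, 200 uM small-molecule ligand, or an oligonucleotide input.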

[4] = input ligand: microRNA oligo, concentration not stated
[5] = Eterna round: R95, input ligand: FMN 200 uM
[6] = Eterna round: R95, input ligand: microRNA oligo, concentration not stated
[7] = Eterna round: R95, input ligand: none

Row | Sequence | apparent KD of MS2 coat protein (MS2 coat protein [1]) [nM] | apparent KD of MS2 coat protein (MS2 coat protein [2]) [nM] | apparent KD of MS2 coat protein (MS2 coat protein [3]; [4]) [nM] | also measured
1 | AAAAAAAGAGGAUAUACGAACAUGUCAAAAGACGUGAAGGGACAUGAGGAUCACCCAUGUAGAAGGUUUAAAAA [JL Wide Open 29] | 15.5 | 32.9 |  | 
2 | AAAAAACAUGAGGAUCACCCAUGUAAGGAUAUGCAAAAUAAAAGAAAUAAAAAGAAAAGCAGAAGGUAUAUGAA [JL wbt mod 7] | 26.7 | 32.6 |  | 
3 | AAAAAACAUGAGGAUCACCCAUGUAAGGAUAUGCCAACAAACAAACAAACAAAAAAAAGCAGAAGGUACAAAAA [Amethyst 70] | 24.1 | 19.8 |  | 
4 | AAAAAACAUGAGGAUCACCCAUGUAAGGAUAUGCUAAAAAACACGGAAAACGUGAAUAGCAGAAGGUACAAAAA [66%, Wbt, 30] | 38.5 | 21.5 |  | 
5 | AAAAAACAUGAGGAUCACCCAUGUAAGGAUAUGCUGAAAAACACGGAAAAAACGUGCAGCAGAAGGUACAAAAA [66%, Wbt, 33] | 28.3 | 20.1 |  | 
6 | AAAAAACAUGAGGAUCACCCAUGUAAGGAUAUGCUGAAAAACACGGAAAAAACGUGCAGCAGAAGGUACAAAAG [Mat - Exclusion 1 - Eli mod - D90] | 33.9 | 16.1 |  | 
7 | AAAAAACAUGAGGAUCACCCAUGUAAGGAUAUGCUGAAAAACACGGAAAAACGUGACAGCAGAAGGUACAAAAA [66%, Wbt, 32] | 30.4 | 21.6 |  | 
8 | AAAAAACAUGAGGAUCACCCAUGUAAGGAUAUGUAAAAUAAAAGAAAAAUAAAGAAAAGCAGAAGGUACAAAAA [JL wbt mod 19] | 25 | 25.9 |  | 
9 | AAAAAACAUGAGGAUCACCCAUGUCAGGAUAUGCAGAAAAAGAAAAAAAGAAAAGAAAGUAGAAGGGACAAAAA [May 7] | 31.8 | 31.2 |  | 
10 | AAAAAACAUGAGGAUCACCCAUGUGAGGAUAUCCAAAAGAAAAGAAAAGAAAGAAGAAGGAGAAGGCACAAGAA [Khufu] | 47.9 | 55.2 |  | 
11 | AAAAAACAUGAGGAUCACCCAUGUGAGGAUAUCCAAAAGUUAAAUAAAAAGACGAAAAGGAGAAGGCGCAAAAA [Mat - Mod of Eli] | 39.4 | 64.9 |  | 
12 | UUGCUCGGGUGAGGAUAUGCCGCCGUUUCGGCUGCAGAAGGUGCUACGUUACAUGAGGAUCACCCAUGUCUCUGUUGUUUCGUC [salish99_SSNG1_r04_968] (Eterna round: R96, puzzle: Same State NG 1) |  |  | 28.1 | apparent KD of MS2 coat protein (MS2 coat protein [3]; input ligand: FMN 200 uM): 65.1 nM; apparent KD of MS2 coat protein (MS2 coat protein [3]; input ligand: none): 52.3 nM
13 | UUGUUUAGUAAUUAACAUGAGGAUCACCCAUGUCUUGGCUCAGAGGAUAUGCAUGUUUGAUUGUAGCAGAAGGCUGAUUGUUGU [JR_SSNG3_Sub030] (Eterna round: R96, puzzle: Same State NG 3) |  |  | 148 | apparent KD of MS2 coat protein (MS2 coat protein [3]; input ligand: FMN 200 uM): 65.1 nM; apparent KD of MS2 coat protein (MS2 coat protein [3]; input ligand: none): 107 nM
14 | UUGUUUCACGUAGGAUAUCGACCUACAUGAGGAUCACCCAUGUUUUUGAAUAGAUUUUUUUGUUACGAGAAGGACGUUAUGUAU [JR_SSNG2_Sub065] (Eterna round: R96, puzzle: Same State NG 2) |  |  | 104 | apparent KD of MS2 coat protein (MS2 coat protein [3]; input ligand: FMN 200 uM): 59.3 nM; apparent KD of MS2 coat protein (MS2 coat protein [3]; input ligand: none): 168 nM
15 | UUUACAUUACGAGGAUAUCAAUUAUUUCAUGUAUGAGAAGGCGUUAUUUUUACUACCUUACAUGAGGAUCACCCAUGUUUCAUU [JR_SSNG1_Sub041] (Eterna round: R96, puzzle: Same State NG 1) |  |  | 40.3 | 
16 | UUUACAUUACGAGGAUAUCAAUUAUUUCAUGUUUGAGAAGGCGUUUUUUUUAUUACCUUACAUGAGGAUCACCCAUGUUUCAUU [JR_SSNG1_Sub042] (Eterna round: R96, puzzle: Same State NG 1) |  |  | 18.4 | apparent KD of MS2 coat protein (MS2 coat protein [3]; input ligand: FMN 200 uM): 19.4 nM; apparent KD of MS2 coat protein (MS2 coat protein [3]; input ligand: none): 25.5 nM
17 | UUUAGAUUCAGAGGAUAUUGAUGUUGUAAGUAACAAGAAGGCUGAUUGGUUAGAAUUGUUUAUUAACAUGAGGAUCACCCAUGU [JR_SSNG1_Sub010] (Eterna round: R96, puzzle: Same State NG 1) |  |  | 28.2 | apparent KD of MS2 coat protein (MS2 coat protein [3]; input ligand: FMN 200 uM): 18.1 nM; apparent KD of MS2 coat protein (MS2 coat protein [3]; input ligand: none): 30.6 nM
18 | UUUAGGUACGGGCAGGAUAUGUAUUAAAAUACAUGAGGAUCACCCAUGUGCGGGUAUAACACCCGACAGAAGGGCCAAUCGUACC [Laonerce - 10] (puzzle: Same State 2) |  |  |  | apparent KD of MS2 coat protein (MS2 coat protein [3]; [5]): 25.1 nM; apparent KD of MS2 coat protein (MS2 coat protein [3]; [6]): 136 nM; apparent KD of MS2 coat protein (MS2 coat protein [3]; [7]): 251 nM
19 | UUUAGUUGCGGGCAGGAUAUGUAUUAAAAUACAUGAGGAUCACCCAUGUGAGGCCGAAAAGGCCUACAGAAGGGCCAAACGCGAC [Laonerce - 23] (puzzle: Same State 2) |  |  |  | apparent KD of MS2 coat protein (MS2 coat protein [3]; [5]): 14.4 nM; apparent KD of MS2 coat protein (MS2 coat protein [3]; [6]): 84.5 nM; apparent KD of MS2 coat protein (MS2 coat protein [3]; [7]): 117 nM
20 | UUUAGUUGCGGGCAGGAUAUGUAUUAAAAUACAUGAGGAUCACCCAUGUGUGGGUAUAACACCCAACAGAAGGGCCAAUCGCGAC [Laonerce - 12] (Eterna round: R96, puzzle: Same State 2) |  |  | 94.4 | 
21 | UUUAGUUGCGGGCAGGAUAUGUAUUAAAAUACAUGAGGAUCACCCAUGUGUGGGUAUAACACCCAACAGAAGGGCCAAUCGCGAC [Laonerce - 12] (puzzle: Same State 2) |  |  |  | apparent KD of MS2 coat protein (MS2 coat protein [3]; [5]): 17.2 nM; apparent KD of MS2 coat protein (MS2 coat protein [3]; [6]): 154 nM; apparent KD of MS2 coat protein (MS2 coat protein [3]; [7]): 165 nM
22 | UUUAUAUUCAGAGGAUAUUAAAGUAGUAUAAUAUAAGAAGGCUGUUUGUUUUGUAAAUUUAUUCUACAUGAGGAUCACCCAUGU [JR_SSNG1_Sub086] (Eterna round: R96, puzzle: Same State NG 1) |  |  | 14.5 | 
23 | UUUAUAUUCAGAGGAUAUUAAUGUAGUAUAACAUAAGAAGGCUGUUUGUUUUGUAAAGUAAUUCUACAUGAGGAUCACCCAUGU [JR_SSNG1_Sub084] (Eterna round: R96, puzzle: Same State NG 1) |  |  | 15.5 | 
24 | UUUAUAUUCAGAGGAUAUUAAUGUAGUAUAAUAUAAGAAGGCUGUUUGUUUUGUAAAGUUAUUAUACAUGAGGAUCACCCAUGU [JR_SSNG1_Sub083] (Eterna round: R96, puzzle: Same State NG 1) |  |  | 13.5 | 
25 | UUUGCAUGACGAGGAUAUCAUUUAUUUCUUGAUUGAGAAGGCGUUCUUUUUAUUACCUAACAUGAGGAUCACCCAUGUGACAGU [JR_SSNG1_Sub046] (Eterna round: R96, puzzle: Same State NG 1) |  |  | 10.3 | apparent KD of MS2 coat protein (MS2 coat protein [3]; input ligand: FMN 200 uM): 13.2 nM; apparent KD of MS2 coat protein (MS2 coat protein [3]; input ligand: none): 16.7 nM
26 | UUUGCAUGACGAGGAUAUCAUUUAUUUCUUGAUUGAGAAGGCGUUCUUUUUCCUACCUAACAUGAGGAUCACCCAUGUGACAGU [JR_SSNG1_Sub049] (Eterna round: R96, puzzle: Same State NG 1) |  |  | 12 | apparent KD of MS2 coat protein (MS2 coat protein [3]; input ligand: FMN 200 uM): 12.7 nM; apparent KD of MS2 coat protein (MS2 coat protein [3]; input ligand: none): 14 nM
27 | UUUUUUAUCGUAGGAUAUAGGUUGAAUAAUAGACUAGAAGGACGUGACAUGAGGAUCACCCAUGUUUUUUAAGUGUCGAAGUGU [JR_SSNG1_Sub039] (Eterna round: R96, puzzle: Same State NG 1) |  |  | 19.6 | 
28 | UUUUUUUUACAUGAGGAUCACCCAUGUCGGGCUGUUUGCUUUCAUGUCUUAUUGCAUGCAUGUUUUUCAUGCAUGCU [jnicol vienna2 solution] (puzzle: Sensor for hsa-mir-208a version 2) |  |  |  | apparent KD of MS2 coat protein (MS2 coat protein [3]; [5]): 97.7 nM; apparent KD of MS2 coat protein (MS2 coat protein [3]; [6]): 129 nM; apparent KD of MS2 coat protein (MS2 coat protein [3]; [7]): 145 nM
